The source of these data is PMC10653885 (mBio, 2023).

As a reminder, the Kd is the equilibrium constant for the complex coming apart. A word on the stoichiometry N: it is a count of units in the complex or per binding partner.

Data set [1] addresses recombinant BB0323 (rBB0323) (Borrelia burgdorferi) (UniProt O51302). In words: MST; 10 nM target protein labelled with Red-tris-NTA dye; 12-point 1:1 serial dilution of the ligand from 20 µM; PBS + 0.05% Tween-20, pH 7.4; 40% MST power, 10% LED power; TJump analysis, KD fit model of 1:1 stoichiometry; three biological replicates.
Data set [2] concerns the target recombinant wild-type BB0238 (rBB0238^WT) (Borrelia burgdorferi B31) (UniProt O51254). Described as above.
The target of data set [3] is recombinant BB0238 Y37A (rY37A) (Borrelia burgdorferi B31). The data set can be described thus: SEC; analytical size exclusion chromatography on a calibrated Superose 12 column; apparent molecular masses from a standard curve. (In general: SEC sorts molecules by how far they enter the pores of the column.)
Data set [4] concerns the target recombinant BB0238 P65A (rP65A) (Borrelia burgdorferi B31). The data set can be described thus: MST; 10 nM target protein labelled with Red-tris-NTA dye; 12-point 1:1 serial dilution of the ligand from 20 µM; PBS + 0.05% Tween-20, pH 7.4; 40% MST power, 10% LED power; TJump analysis, KD fit model of 1:1 stoichiometry; three biological replicates.
The target in data set [5] is recombinant BB0238 Y37A (rY37A) (Borrelia burgdorferi B31). The description is as above.
Data set [6] concerns the target recombinant BB0238 P65A (rP65A) (Borrelia burgdorferi B31). In words: SEC; analytical size exclusion chromatography on a calibrated Superose 12 column; apparent molecular masses from a standard curve.
Data set [7] concerns the molecule itself. The data set is described as above.
Data set [8] has as its target T1, recombinant BB0323 (rBB0323) (Borrelia burgdorferi, UniProt O51302 1-377, labelled with NanoTemper Red-tris-NTA dye (only in the MST with BB0108)).
T1 sequence: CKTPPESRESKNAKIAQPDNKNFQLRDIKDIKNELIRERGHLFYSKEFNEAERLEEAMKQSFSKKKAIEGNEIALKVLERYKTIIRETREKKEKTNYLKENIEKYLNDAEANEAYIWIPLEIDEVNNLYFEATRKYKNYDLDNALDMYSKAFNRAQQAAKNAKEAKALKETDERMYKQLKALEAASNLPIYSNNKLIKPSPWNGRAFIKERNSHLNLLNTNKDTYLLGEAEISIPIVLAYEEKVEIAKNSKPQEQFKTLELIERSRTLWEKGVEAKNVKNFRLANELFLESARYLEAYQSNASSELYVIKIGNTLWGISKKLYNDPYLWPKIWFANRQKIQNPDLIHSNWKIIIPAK
In words: MST; 10 nM target protein labelled with Red-tris-NTA dye; 12-point 1:1 serial dilution of the ligand from 20 µM; PBS + 0.05% Tween-20, pH 7.4; 40% MST power, 10% LED power; TJump analysis, KD fit model of 1:1 stoichiometry; three biological replicates. As to conditions: both partners purified.

recombinant BB0108 (enzyme): the Kd in data set [1] is 2330 nM; in data set [2] it was 1890 nM.

For “recombinant BB0238 Y37A (rY37A) (natural protein)”, the stoichiometry N in data set [3] turned out to be 2. Turning to “recombinant BB0323 (rBB0323) (from UniProt O51302 1-377) (natural protein)”, the results for the Kd in data set [4] and in data set [5] were 702 nM and 658 nM, respectively. As for “recombinant BB0238 P65A (rP65A) (natural protein)”, in data set [6], the stoichiometry N was determined as 2.

B1: recombinant wild-type BB0238 (rBB0238^WT) (natural protein)
chain: SSYIDKQKELAIFYYEVGQRYINVGKIKKGKLFQAKALKIYPDLKKGFDIKLAVKELDARIKDDNPKVVMLEDIKLEEIPGIVHEKIEINDFTNAPKIEYIAQRERSKNQDKIIKFQFGKFARALISRNFDLFDSVIADKVNVMGQFESKNDFISTLSSASSKADADELEYLSVDDYYDLKSLKISKSNDTSFAVNVNAKKNDVTKNFPFWKERQTLIFTTEDDNNWFLSSIN
modifications: labelled with NanoTemper Red-tris-NTA dye (in MST only)
For B1, the “stoichiometry N” value in data set [7] turned out to be 2. Also, in data set [8], the Kd stood at 1000 nM.
